One block for each substance: values may come before it.
Legend:
scrib_human SCRIB [1] = target: scrib_human SCRIB (UniProt Q14160)
ks6a2_human RPS6KA2 [2] = target: ks6a2_human RPS6KA2 (UniProt Q15349)
scrib_human SCRIB [3] = target: scrib_human SCRIB (UniProt Q14160); remark: listed apart in the source
dlg1_human DLG1 = dlg1_human DLG1 (UniProt Q12959)
crcm_human MCC [4] = target: crcm_human MCC (UniProt P23508)
ks6a2_human RPS6KA2 [5] = target: ks6a2_human RPS6KA2 (UniProt Q15349); remark: listed apart in the source
scrib_human SCRIB [6] = target: scrib_human SCRIB (UniProt Q14160); remark: listed apart in the source
crcm_human MCC [7] = target: crcm_human MCC (UniProt P23508); remark: listed apart in the source

scrib_human SCRIB, sequence (Q14160 whole entry): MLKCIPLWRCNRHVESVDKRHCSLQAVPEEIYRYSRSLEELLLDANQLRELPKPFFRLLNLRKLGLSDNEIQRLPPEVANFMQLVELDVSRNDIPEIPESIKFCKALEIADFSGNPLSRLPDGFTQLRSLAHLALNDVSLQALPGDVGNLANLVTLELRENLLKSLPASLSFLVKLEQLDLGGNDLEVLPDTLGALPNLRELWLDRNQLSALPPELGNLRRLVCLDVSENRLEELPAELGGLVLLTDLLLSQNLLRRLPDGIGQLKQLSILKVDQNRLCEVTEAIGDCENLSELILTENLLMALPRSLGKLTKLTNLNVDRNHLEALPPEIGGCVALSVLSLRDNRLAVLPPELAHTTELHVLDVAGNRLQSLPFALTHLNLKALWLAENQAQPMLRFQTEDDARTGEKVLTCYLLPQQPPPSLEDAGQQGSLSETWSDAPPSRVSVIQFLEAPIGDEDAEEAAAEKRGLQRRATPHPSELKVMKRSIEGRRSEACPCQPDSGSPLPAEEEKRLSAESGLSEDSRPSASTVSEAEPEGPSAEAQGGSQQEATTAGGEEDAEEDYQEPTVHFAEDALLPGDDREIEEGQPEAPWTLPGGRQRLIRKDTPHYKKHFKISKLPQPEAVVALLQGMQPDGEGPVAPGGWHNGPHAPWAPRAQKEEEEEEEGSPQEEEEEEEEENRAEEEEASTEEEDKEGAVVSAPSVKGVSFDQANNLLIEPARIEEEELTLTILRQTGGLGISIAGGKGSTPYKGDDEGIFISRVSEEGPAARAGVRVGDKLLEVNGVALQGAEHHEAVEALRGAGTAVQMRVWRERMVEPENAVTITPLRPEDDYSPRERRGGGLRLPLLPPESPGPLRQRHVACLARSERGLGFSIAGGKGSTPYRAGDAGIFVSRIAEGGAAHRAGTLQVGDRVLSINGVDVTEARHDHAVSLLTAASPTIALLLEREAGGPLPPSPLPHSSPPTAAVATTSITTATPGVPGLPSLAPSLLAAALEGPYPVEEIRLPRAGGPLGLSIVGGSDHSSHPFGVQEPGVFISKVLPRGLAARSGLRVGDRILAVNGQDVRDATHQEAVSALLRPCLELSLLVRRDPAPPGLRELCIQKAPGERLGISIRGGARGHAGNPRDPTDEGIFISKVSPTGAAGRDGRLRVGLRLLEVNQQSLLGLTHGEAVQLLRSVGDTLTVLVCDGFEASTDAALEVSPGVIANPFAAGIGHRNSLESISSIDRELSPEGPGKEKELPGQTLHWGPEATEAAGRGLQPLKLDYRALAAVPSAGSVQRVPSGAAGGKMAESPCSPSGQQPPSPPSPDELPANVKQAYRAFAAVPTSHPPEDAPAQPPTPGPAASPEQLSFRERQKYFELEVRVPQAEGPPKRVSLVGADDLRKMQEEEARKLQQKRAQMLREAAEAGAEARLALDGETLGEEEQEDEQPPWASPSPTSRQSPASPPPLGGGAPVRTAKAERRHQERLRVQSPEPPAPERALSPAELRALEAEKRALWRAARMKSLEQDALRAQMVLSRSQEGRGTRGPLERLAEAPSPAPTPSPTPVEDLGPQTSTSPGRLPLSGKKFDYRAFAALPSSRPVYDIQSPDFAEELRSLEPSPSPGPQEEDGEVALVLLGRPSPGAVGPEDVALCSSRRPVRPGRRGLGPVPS
ks6a2_human RPS6KA2, sequence (Q15349 whole entry): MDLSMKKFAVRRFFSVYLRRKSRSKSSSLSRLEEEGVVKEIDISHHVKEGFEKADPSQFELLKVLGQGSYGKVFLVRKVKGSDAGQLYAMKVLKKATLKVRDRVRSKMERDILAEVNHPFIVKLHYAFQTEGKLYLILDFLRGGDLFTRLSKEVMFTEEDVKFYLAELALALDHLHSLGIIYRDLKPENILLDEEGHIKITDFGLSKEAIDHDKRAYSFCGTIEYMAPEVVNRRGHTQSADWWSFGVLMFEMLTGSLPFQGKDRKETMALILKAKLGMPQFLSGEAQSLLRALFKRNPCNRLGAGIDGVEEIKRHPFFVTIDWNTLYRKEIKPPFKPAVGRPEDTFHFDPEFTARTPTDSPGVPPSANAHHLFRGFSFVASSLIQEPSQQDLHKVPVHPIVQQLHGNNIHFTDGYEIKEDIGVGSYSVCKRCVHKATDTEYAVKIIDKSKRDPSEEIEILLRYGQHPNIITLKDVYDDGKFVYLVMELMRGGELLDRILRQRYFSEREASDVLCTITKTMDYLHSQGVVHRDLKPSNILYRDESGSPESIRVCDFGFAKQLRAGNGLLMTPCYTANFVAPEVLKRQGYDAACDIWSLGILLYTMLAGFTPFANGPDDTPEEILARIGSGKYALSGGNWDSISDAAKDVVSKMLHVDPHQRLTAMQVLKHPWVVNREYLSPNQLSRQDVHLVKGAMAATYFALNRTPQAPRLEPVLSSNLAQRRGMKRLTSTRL
crcm_human MCC, sequence (P23508 whole entry): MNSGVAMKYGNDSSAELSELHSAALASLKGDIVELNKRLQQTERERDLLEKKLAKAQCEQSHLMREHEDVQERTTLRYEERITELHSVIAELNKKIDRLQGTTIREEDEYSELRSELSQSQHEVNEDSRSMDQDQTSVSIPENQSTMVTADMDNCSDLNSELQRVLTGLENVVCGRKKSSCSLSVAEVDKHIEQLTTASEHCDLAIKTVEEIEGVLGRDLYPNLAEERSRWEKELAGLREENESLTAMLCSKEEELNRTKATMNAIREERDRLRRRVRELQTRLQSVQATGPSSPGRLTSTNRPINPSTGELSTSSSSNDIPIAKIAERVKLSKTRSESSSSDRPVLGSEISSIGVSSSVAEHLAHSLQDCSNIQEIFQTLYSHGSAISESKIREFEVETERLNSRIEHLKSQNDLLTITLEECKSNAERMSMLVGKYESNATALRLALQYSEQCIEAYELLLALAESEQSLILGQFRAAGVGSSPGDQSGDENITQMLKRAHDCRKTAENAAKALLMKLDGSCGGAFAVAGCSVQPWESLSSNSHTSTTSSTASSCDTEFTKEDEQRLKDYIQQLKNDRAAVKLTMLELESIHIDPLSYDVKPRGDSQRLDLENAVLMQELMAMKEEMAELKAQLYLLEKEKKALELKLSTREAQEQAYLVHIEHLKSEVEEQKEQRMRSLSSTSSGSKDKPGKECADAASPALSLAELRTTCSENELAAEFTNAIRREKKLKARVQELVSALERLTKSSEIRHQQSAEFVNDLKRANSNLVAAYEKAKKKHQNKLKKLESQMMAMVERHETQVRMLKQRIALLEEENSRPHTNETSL
dlg1_human DLG1, sequence (Q12959 whole entry, looked up): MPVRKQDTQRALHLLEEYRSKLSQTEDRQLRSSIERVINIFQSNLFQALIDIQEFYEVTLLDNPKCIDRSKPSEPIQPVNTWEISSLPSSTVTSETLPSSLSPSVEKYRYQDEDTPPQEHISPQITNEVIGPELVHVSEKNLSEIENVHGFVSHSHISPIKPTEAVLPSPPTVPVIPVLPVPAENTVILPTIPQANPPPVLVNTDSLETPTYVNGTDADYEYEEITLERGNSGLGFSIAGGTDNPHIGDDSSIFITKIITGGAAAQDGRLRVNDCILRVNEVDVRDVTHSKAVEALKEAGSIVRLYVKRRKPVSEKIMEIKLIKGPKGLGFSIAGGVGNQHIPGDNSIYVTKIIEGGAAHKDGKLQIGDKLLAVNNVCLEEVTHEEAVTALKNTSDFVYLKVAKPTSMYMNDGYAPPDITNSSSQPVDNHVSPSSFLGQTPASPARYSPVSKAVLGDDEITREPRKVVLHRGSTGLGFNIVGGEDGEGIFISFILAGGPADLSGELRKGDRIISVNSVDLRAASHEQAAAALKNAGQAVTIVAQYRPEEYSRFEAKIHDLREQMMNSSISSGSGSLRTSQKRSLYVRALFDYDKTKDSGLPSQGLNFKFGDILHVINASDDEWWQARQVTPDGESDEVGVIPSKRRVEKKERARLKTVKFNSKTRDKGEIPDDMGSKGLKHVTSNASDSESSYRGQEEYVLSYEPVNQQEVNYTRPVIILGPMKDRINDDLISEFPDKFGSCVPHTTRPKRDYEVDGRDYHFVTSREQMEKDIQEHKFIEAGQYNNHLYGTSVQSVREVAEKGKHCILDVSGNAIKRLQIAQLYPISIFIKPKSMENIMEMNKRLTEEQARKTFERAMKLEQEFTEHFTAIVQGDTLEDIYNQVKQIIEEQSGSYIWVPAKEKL
Wilms tumor protein 1-interacting protein (Homo sapiens), A6NIX2 S422E, sequence (A6NIX2 whole entry S422E): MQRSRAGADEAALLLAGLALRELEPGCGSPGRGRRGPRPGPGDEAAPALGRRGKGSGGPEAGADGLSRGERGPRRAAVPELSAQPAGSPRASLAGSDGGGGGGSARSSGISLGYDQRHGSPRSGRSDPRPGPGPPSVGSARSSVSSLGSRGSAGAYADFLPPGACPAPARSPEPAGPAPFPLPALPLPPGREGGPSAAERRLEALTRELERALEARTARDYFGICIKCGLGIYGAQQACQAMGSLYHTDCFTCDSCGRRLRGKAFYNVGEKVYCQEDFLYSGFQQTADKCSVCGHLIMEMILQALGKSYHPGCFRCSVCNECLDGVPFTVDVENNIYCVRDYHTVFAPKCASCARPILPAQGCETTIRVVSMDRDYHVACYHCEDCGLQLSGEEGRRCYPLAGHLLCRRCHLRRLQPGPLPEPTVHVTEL

Substance: Wilms tumor protein 1-interacting protein (Homo sapiens), A6NIX2 S422E
effect of a mutation on the interaction (scrib_human SCRIB [1]): with no effect

Substance: Protein scribble homolog (Homo sapiens), Q14160 R801A
effect of a mutation on the interaction (ks6a2_human RPS6KA2 [2]): decreasing interaction strength

Substance: Protein scribble homolog (Homo sapiens), Q14160 R762A
effect of a mutation on the interaction (crcm_human MCC [4]): decreasing interaction strength
effect of a mutation on the interaction (ks6a2_human RPS6KA2 [2]): decreasing interaction strength
effect of a mutation on the interaction (ks6a2_human RPS6KA2 [5]): increasing interaction strength

Substance: Protein scribble homolog (Homo sapiens), Q14160 K746A
effect of a mutation on the interaction (ks6a2_human RPS6KA2 [2]): decreasing interaction strength
effect of a mutation on the interaction (ks6a2_human RPS6KA2 [5]): increasing interaction strength

Substance: Protein scribble homolog (Homo sapiens), Q14160 A743R;R762A
effect of a mutation on the interaction (crcm_human MCC [4]): decreasing interaction strength
effect of a mutation on the interaction (crcm_human MCC [7]): with no effect
effect of a mutation on the interaction (ks6a2_human RPS6KA2 [2]): decreasing interaction strength

Other lines, results leading:

effect of a mutation on the interaction (scrib_human SCRIB [3]): decreasing interaction strength
effect of a mutation on the interaction (dlg1_human DLG1): decreasing interaction strength
Substance: Protein TANC1 (Homo sapiens), Q9C0D5 S1855E

effect of a mutation on the interaction (scrib_human SCRIB [6]): disrupting interaction strength
Substance: Asparagine synthetase domain-containing protein 1 (Homo sapiens), Q9NWL6 T641E

effect of a mutation on the interaction (ks6a2_human RPS6KA2 [2]): increasing interaction strength
Substance: Protein scribble homolog (Homo sapiens), Q14160 A743R

Reference: IntAct's records for PubMed 30126976
